Experimental data from patent US20070054271A1.

Legend:
[1] = target: putative CXCL14 receptor (CXCL14-binding cell surface protein(s)) on breast epithelial and breast cancer cells; experiment: Scatchard analysis of AP-CXCL14 binding to MDA-MB-231 cells in suspension, bound AP activity; low affinity site
[2] = target: putative CXCL14 receptor (CXCL14-binding cell surface protein(s)) on breast epithelial and breast cancer cells; experiment: Scatchard analysis of AP-CXCL14 binding to MDA-MB-231 cells in suspension, bound AP activity; high affinity site

Substance “alkaline phosphatase-CXCL14 (AP-CXCL14) fusion protein, AP located N-terminal of the CXCL14 (from UniProt O95715 35-111) (ligand)” has a Kd [1] of 0.567 µM and a Kd [2] of 0.061 µM.
